This is an account of results in PMC7585440, “Sclerostin inhibits Wnt signaling through tandem interaction with two LRP6 ectodomains” (Nature Communications, 2020).

Holding throughout (conditions): both partners purified
One assay concerns the target T1, LRP6 E1E2 H404K (human, UniProt O75581 21-630, H404K).
T1 construct: Low-density lipoprotein receptor-related protein 6 (LRP6), human, ectodomains E1 and E2 (parent construct P21-P630) with H404K; Mutation introduced into the LRP6 E1E2 of the crystallised complex; also called LRP6 E1E2 with the H404K mutation; source: purified as a complex with SOST_(tr177) N175K
T1 sequence (looked up): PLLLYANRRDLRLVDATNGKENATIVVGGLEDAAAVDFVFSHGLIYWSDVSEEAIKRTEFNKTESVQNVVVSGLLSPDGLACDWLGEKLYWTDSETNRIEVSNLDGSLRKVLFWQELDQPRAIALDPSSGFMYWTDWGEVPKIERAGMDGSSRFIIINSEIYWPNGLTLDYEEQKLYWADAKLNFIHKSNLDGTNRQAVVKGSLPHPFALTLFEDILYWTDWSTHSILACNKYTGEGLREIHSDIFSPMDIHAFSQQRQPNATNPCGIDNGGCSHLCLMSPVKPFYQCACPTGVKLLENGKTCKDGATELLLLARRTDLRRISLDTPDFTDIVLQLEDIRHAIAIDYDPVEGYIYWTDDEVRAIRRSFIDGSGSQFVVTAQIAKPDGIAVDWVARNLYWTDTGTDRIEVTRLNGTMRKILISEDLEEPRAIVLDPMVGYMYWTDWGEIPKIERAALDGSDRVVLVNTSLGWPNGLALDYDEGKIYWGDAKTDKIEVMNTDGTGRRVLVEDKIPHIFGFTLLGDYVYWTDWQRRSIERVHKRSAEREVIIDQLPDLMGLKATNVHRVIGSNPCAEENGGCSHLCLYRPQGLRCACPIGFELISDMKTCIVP
Kind of assay: cross-linking; purified LRP6 E1E2 H404K–SOST_(tr177) N175K complex with BS3 at room temperature for 30 min; ~90 kDa band cut out, chymotrypsin, LC-MS/MS.

The target in assay [1] is T2, human LRP6 E1E2 (P21–P630) with a C-terminal 10× His tag (human, UniProt O75581 21-630).
T2 construct: Low-density lipoprotein receptor-related protein 6 (LRP6), human, ectodomains E1 and E2, residues P21-P630; Unlabelled form: crystal, SEC-MALS and fluorescence-SEC; An anti-His-tag antibody was used for the western blots of the fluorescence-SEC experiment; also called LRP6 ectodomains 1 and 2; source: High Five insect cells (baculovirus), secreted, purified (Ni-NTA, HiTrapQ, SEC); co-expressed …
T2 sequence (looked up): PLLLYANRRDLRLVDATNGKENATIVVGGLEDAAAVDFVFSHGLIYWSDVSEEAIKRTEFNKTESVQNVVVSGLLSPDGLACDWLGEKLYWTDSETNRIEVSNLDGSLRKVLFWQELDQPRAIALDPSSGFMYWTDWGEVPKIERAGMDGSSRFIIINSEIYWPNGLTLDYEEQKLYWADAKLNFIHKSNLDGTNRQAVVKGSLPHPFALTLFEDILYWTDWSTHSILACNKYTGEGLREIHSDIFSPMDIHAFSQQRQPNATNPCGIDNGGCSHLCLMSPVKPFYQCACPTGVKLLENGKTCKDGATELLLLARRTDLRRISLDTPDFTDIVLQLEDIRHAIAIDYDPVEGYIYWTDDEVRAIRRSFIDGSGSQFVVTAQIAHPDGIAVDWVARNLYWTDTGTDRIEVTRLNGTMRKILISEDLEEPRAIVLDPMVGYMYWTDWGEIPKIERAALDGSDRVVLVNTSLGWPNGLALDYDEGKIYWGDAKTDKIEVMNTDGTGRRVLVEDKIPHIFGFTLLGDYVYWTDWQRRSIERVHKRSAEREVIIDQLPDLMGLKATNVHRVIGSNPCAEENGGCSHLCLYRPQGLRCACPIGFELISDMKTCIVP
Briefly: SEC-MALS; purified complex at 1 mg/ml on Superdex 200 increase 5/150 GL; 50 mM Tris pH 8.5, 150 mM NaCl; protein conjugate method.

The target in assay [2] is T3, human LRP6 E1E2 with a C-terminal 10× His tag, labeled with the dye NT-647 (human, UniProt O75581 21-630, dye NT-647 (Monolith NT Protein Labeling kit)).
T3 construct: Low-density lipoprotein receptor-related protein 6 (LRP6), human, ectodomains E1 and E2; the limits P21-P630 are printed for the co-expression construct; the MST construct was cloned into another vector (pAcGP67A); also called Labeled LRP6 E1E2; source: High Five insect cells (pAcGP67A), purified (Ni-NTA, HiTrapQ, SEC), no tag cleavage; not shown: His10, C-terminal, kept
T3 sequence (looked up): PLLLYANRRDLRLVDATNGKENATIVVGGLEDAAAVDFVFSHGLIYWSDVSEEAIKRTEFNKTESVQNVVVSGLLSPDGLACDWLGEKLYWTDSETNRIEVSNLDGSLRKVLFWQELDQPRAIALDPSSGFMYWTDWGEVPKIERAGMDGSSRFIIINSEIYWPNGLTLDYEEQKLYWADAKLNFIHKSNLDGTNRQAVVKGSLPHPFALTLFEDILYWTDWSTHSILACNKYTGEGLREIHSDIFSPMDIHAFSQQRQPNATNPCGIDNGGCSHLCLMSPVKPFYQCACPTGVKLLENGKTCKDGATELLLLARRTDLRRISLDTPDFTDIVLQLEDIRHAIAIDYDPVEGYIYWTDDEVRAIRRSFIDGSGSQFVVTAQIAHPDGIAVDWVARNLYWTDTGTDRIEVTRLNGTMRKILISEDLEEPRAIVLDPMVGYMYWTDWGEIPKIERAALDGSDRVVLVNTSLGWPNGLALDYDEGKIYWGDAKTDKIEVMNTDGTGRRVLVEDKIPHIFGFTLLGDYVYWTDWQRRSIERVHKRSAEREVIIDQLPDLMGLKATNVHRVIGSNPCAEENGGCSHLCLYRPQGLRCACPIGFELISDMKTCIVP
Briefly: MST; LRP6 E1E2 or E1 labeled with NT-647 at ~5 nM, unlabeled SOST proteins or peptides titrated; 20 mM Tris-Cl pH 7.0, 200 mM NaCl, 0.5 mg/ml BSA, 0.05% Tween 20; 22 °C; Monolith NT.115 Pico.

Assay [3] concerns the target T4, human LRP6 E1E2 (P21-P630) with a C-terminal 10x His tag (human, UniProt O75581 21-630, labeled with the dye NT-647 in the MST experiments (legends: Cy-5 dye-labeled)).
T4 construct: low-density lipoprotein receptor-related protein 6 (LRP6), human, ectodomains E1 and E2, residues P21-P630; also called LPR6 E1E2; source: High Five insect cells, secreted, purified (Ni-NTA, HiTrapQ, SEC); for the crystal co-expressed with SOSTtr177
T4 sequence (looked up): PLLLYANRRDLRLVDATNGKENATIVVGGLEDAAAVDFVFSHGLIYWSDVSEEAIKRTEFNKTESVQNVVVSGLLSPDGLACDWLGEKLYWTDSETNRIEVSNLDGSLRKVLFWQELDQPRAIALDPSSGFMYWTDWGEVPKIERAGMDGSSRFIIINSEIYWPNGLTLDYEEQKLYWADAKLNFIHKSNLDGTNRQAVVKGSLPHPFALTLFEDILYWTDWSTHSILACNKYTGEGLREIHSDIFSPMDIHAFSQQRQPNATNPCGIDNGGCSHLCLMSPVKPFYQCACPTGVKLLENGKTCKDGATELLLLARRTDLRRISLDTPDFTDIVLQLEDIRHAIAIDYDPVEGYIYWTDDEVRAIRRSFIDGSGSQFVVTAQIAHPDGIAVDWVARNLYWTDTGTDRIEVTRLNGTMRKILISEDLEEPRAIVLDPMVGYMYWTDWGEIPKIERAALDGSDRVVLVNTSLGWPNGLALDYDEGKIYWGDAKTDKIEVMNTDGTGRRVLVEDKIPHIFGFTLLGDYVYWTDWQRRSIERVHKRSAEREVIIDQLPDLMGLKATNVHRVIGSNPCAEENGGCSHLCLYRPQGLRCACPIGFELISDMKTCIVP
Kind of assay: MST; labeled LRP6 E1E2 or LRP6 E1 (~5 nM) titrated with unlabeled Smo-SOST, MBP-SOST, tags or peptides; 20 mM Tris-Cl pH 7.0, 200 mM NaCl, 0.5 mg/ml BSA, 0.05% Tween 20; 22 °C; three independent experiments.

In assay [4] the target is T5, human LRP6 E1 (P21-D325) with a C-terminal His tag (human, UniProt O75581 21-325, labeled with the dye NT-647 in the MST experiments (legends: Cy-5 dye-labeled)).
T5 construct: low-density lipoprotein receptor-related protein 6 (LRP6), human, ectodomain E1, residues P21-D325; The methods name a 10x His tag; also called LPR6 E1; source: High Five insect cells, secreted, purified (Ni-NTA, HiTrapQ, SEC)
T5 sequence (looked up): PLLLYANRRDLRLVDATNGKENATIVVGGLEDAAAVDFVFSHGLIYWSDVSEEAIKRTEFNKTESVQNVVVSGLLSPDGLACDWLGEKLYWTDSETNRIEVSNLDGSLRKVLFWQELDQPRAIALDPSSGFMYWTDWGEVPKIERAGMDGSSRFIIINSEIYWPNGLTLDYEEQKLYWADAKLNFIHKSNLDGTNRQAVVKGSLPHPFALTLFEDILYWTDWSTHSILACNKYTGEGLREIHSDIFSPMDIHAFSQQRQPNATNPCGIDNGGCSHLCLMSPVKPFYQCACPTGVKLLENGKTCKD
The assay is described as above.

By stoichiometry N is commonly meant a count of units in the complex or per binding partner. As a reminder, the Kd is the free concentration of one partner at which half of the binding sites on the other are occupied at equilibrium, for simple one-to-one binding.

B1: SOST_(tr177) N175K (domain or fragment, human, UniProt Q9BQB4 24-177, looked up)
chain: QGWQAFKNDATEIIPELGEYPEPPPELENNKTMNRAENGGRPPHHPFETKDVSEYSCRELHFTRYVTDGPCRSAKPVTELVCSGQCGPARLLPNAIGRGKWWRPSGPDFRCIPDRYRAQRVQLLCPGGEAPRARKVRLVASCKCKRLTRFHKQS
notes: Sclerostin (SOST), human, residues Q24-S177 (parent SOST_(tr177)) with N175K; also called SOSTtr177 with the N175K mutation; source: purified as a complex with LRP6 E1E2 H404K
On to B1, for which, in the assay with LRP6 E1E2 H404K, the binding result is on record as “binds”.

B2: human SOST_(tr177) (Q24-S177) (domain or fragment, UniProt Q9BQB4 24-177, looked up)
chain: QGWQAFKNDATEIIPELGEYPEPPPELENNKTMNRAENGGRPPHHPFETKDVSEYSCRELHFTRYVTDGPCRSAKPVTELVCSGQCGPARLLPNAIGRGKWWRPSGPDFRCIPDRYRAQRVQLLCPGGEAPRARKVRLVASCKCKRLTRFHNQS
notes: Sclerostin (SOST), human, residues Q24-S177; N175 not glycosylated in this construct; also called crystallization construct; not shown: His6, N-terminal, cleaved; MBP, N-terminal, cleaved
As to B2, in assay [1], the “stoichiometry N” value worked out at 1.

B3: SOST∆loop2 with an N-terminal His6-SUMO tag (natural protein)
chain: QGWQAFKNDATEIIPELGEYPEPPPELENNKTMNRAENGGRPPHHPFETKDVSEYSCRELHFTRYVTDGPCRSAKPVTELVCSGQCGPAGSGGSGPDFRCIPDRYRAQRVQLLCPGGEAPRARKVRLVASCKCKRLTRFHNQSELKDFGTEAARPQKGRKPRPRARSAKANQAELENAY
With B3, binding in assay [2] was characterised by a dissociation constant (Kd) of 1000 nM.

B4: human SOSTtr204 (Q24-A204) with an N-terminal His6-SUMO tag (domain or fragment)
chain: QGWQAFKNDATEIIPELGEYPEPPPELENNKTMNRAENGGRPPHHPFETKDVSEYSCRELHFTRYVTDGPCRSAKPVTELVCSGQCGPARLLPNAIGRGKWWRPSGPDFRCIPDRYRAQRVQLLCPGGEAPRARKVRLVASCKCKRLTRFHNQSELKDFGTEAARPQKGRKPRPRARSAKA
notes: sclerostin (SOST), human, residues Q24-A204; also called Smo-SOSTtr204; source: High Five insect cells, secreted, purified; tag not cleaved; not shown: His6, N-terminal, kept; SUMO, N-terminal, kept
In turn, B4 registered a Kd in assay [3] of 290 nM.

B5: human SOST C-terminal tail peptide (residues 170–213) (peptide)
chain: not shown
Molecule B5 had a Kd in assay [2] of 5800 nM.

B6: human SOSTtr169 (Q24-R169) with an N-terminal His6-SUMO tag (domain or fragment)
chain: QGWQAFKNDATEIIPELGEYPEPPPELENNKTMNRAENGGRPPHHPFETKDVSEYSCRELHFTRYVTDGPCRSAKPVTELVCSGQCGPARLLPNAIGRGKWWRPSGPDFRCIPDRYRAQRVQLLCPGGEAPRARKVRLVASCKCKR
notes: sclerostin (SOST), human, residues Q24-R169; also called Smo-SOSTtr169; source: High Five insect cells, secreted, purified; tag not cleaved; not shown: His6, N-terminal, kept; SUMO, N-terminal, kept
For B6, in assay [4], the Kd came out at 870 nM.

B7: SOST_(tr169) with an N-terminal His6-SUMO tag (domain or fragment, human, UniProt Q9BQB4 24-169, looked up)
chain: QGWQAFKNDATEIIPELGEYPEPPPELENNKTMNRAENGGRPPHHPFETKDVSEYSCRELHFTRYVTDGPCRSAKPVTELVCSGQCGPARLLPNAIGRGKWWRPSGPDFRCIPDRYRAQRVQLLCPGGEAPRARKVRLVASCKCKR
notes: has neither the HNQS region nor the basic-residue cluster; also called Smo-SOST mutant tr169; source: High Five insect cells (pAcGP67A), purified (Ni-NTA, HiTrapQ, SEC), no tag cleavage; not shown: His6, N-terminal, kept; SUMO, N-terminal, kept
Consider B7, for which the affinity in assay [2], expressed as Kd, was 900 nM.
